From patent US20240270831A1

What was measured:
purchased CTNI antigen [1] = biological target: purchased CTNI antigen (UniProt P19429); assay: fluorescent chromatography card, sandwich; coated on T line; 10.5 ng/ml
purchased CTNI antigen [2] = biological target: purchased CTNI antigen (UniProt P19429); assay: fluorescent chromatography card, sandwich; coated on T line; 0.15 ng/ml
purchased CTNI antigen [3] = biological target: purchased CTNI antigen (UniProt P19429); assay: fluorescent chromatography card, sandwich; coated on T line; 0.04 ng/ml
purchased CTNI antigen [4] = biological target: purchased CTNI antigen (UniProt P19429); assay: fluorescent chromatography card, sandwich; coated on T line; 0.08 ng/ml
purchased CTNI antigen [5] = biological target: purchased CTNI antigen (UniProt P19429); assay: fluorescent chromatography card, sandwich; coated on T line; 0 ng/ml (blank, no antigen)
purchased CTNI antigen [6] = biological target: purchased CTNI antigen (UniProt P19429); assay: fluorescent chromatography card, sandwich; coated on T line, other CTNI antibody on fluorescent microspheres; 50 ng/ml
purchased CTNI antigen [7] = biological target: purchased CTNI antigen (UniProt P19429); assay: fluorescent chromatography card, sandwich; coated on T line; 0.7 ng/ml
purchased CTNI antigen [8] = biological target: purchased CTNI antigen (UniProt P19429); assay: fluorescent chromatography card, sandwich; coated on T line; 3 ng/ml
purchased CTNI antigen [9] = biological target: purchased CTNI antigen (UniProt P19429); assay: fluorescent chromatography card, sandwich; coated on T line; 18 ng/ml

Sequence of UniProt P19429 (P19429 2-210 limits assumed): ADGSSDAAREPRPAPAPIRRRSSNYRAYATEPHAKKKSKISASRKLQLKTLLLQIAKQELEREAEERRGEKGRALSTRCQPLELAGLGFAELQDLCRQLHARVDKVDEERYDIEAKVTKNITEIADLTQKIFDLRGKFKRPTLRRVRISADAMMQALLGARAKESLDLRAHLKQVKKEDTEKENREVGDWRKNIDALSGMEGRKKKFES

- fluorescence reading (name not given) (purchased CTNI antigen [1]): 0.45
- fluorescence reading (name not given) (purchased CTNI antigen [2]): 0.026
- fluorescence reading (name not given) (purchased CTNI antigen [3]): 0.017
- fluorescence reading (name not given) (purchased CTNI antigen [4]): 0.02
- fluorescence reading (name not given) (purchased CTNI antigen [5]): 0.015
- fluorescence reading (name not given) (purchased CTNI antigen [6]): 2.17
- fluorescence reading (name not given) (purchased CTNI antigen [7]): 0.045
- fluorescence reading (name not given) (purchased CTNI antigen [8]): 0.18
- fluorescence reading (name not given) (purchased CTNI antigen [9]): 0.746
B1: Anti-cTnI-21C5 monoclonal antibody (antibody, from another filing, V domains shown)
VH: EVQLQQSGPELVKPGASVKMSCKASGYSFTLYVVHWVKQKPGQGLEWIGYIQPYLDGTRYNEKFKGKATLTVDKSSSTAFMELSSLTSEDSAVYYCARTGYGGYGLAWLAYWGQGTLVTVSA
VL: QAVVIQESALTTSPGETVTLTCRSSSGAATTSQYANWVQEKPDHLFTGLIGGSNNRAPGVPARFSGSLIGDKAALTITGAQTEDEAIYFCAIVYSNHWVFGGGTKLTVLG
